Source: paper doi:10.1101/2020.07.15.204800 (bioRxiv, 2020)

Target: T1, PQLC2-FLAG wild type (human, UniProt Q6ZP29 1-291)
T1 sequence: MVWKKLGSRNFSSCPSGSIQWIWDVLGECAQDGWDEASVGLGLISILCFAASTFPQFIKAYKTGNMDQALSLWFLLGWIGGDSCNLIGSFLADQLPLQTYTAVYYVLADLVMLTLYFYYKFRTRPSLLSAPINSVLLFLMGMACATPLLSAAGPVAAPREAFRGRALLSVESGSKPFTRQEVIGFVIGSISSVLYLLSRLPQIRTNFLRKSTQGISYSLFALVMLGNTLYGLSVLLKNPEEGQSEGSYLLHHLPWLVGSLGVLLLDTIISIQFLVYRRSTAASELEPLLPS
Assay: pull-down

## TGFFNMWGFG [GST-WDR41-PIP (GST fused to the 10 amino acid PIP sequence)]
  binding result: binds
